This is an account of results in patent US20230357367A1.

Read-outs that look alike come from different tables or passages of the source.

What all share (test): cell-based or functional assay
For test [1], the target named is SARS-CoV-2 Omicron BA.4/5+K444T Spike on pseudovirus (SARS-CoV-2).
Test [2] addresses spike (SARS-CoV-2, D614G) (SARS-CoV-2) (UniProt P0DTC2).
For test [3] the target is unchanged. This is another data set of the same source.
Test [4] shares this target. The source holds these as a separate data set.
Test [5] has the same target. The source holds these as a separate data set.
Test [6] has the same target. This is another data set of the same source.
The target in test [7] is spike (SARS-CoV-2, BA.5.8 P1162L) (SARS-CoV-2).
Test [8] deals with spike (SARS-CoV-2, BA.1.1 P1162S) (SARS-CoV-2).

As to “Sotrovimab VH/VL (human IgG1 molecule expressing the same variable regions of Sotrovimab) (antibody)”, the Neutralization - IC50, pseudovirus in test [1] stood at 304 ng/mL.
Bebtelovimab (antibody) came in with a Neutralization - IC50, pseudovirus in test [1] of 1220 ng/mL.
Regarding sotrovimab VH/VL-huIgG1-LS (antibody), the Emax, pseudovirus neutralization, Vero E6, with isotype (% neutralization) in test [2] was found to be 98.3. Also, in test [3], the EC50, pseudovirus neutralization, Vero E6, with isotype is 14 ng/mL. In addition, the EC90, pseudovirus neutralization, Vero E6, with isotype in test [4] came out at 170 ng/mL. The EC80, pseudovirus neutralization, Vero E6, with isotype in test [5] worked out at 69 ng/mL. The substance further came in with an EC50, pseudovirus neutralization, Vero E6 in test [6] of 35.2 ng/mL.
Substance sotrovimab VH/VL-hamIgG2a (antibody) gave an EC50, pseudovirus neutralization, Vero E6 in test [6] of 8.51 ng/mL.
In the case of bebtelovimab (antibody), in test [2], the Emax, pseudovirus neutralization, Vero E6, with isotype (% neutralization) is 99.7. In test [3], this substance returned an EC50, pseudovirus neutralization, Vero E6, with isotype of 0.29 ng/mL. Also, the EC90, pseudovirus neutralization, Vero E6, with isotype in test [4] stood at 11 ng/mL. Moreover, in test [5], the EC80, pseudovirus neutralization, Vero E6, with isotype worked out at 2.9 ng/mL. Besides, in test [6], the EC50, pseudovirus neutralization worked out at 0.57 ng/mL; the EC50, pseudovirus neutralization, TMPRSS2-Vero E6, with isotype was 1.7 ng/mL; the EC50, pseudovirus neutralization, Vero E6, with isotype came out at 0.64 ng/mL; the EC80, pseudovirus neutralization is 4.9 ng/mL. In test [6], this substance yielded an EC80, pseudovirus neutralization, TMPRSS2-Vero E6, with isotype of 11 ng/mL; an EC80, pseudovirus neutralization, Vero E6, with isotype of 2.7 ng/mL; an EC90, pseudovirus neutralization of 18 ng/mL; an EC90, pseudovirus neutralization, TMPRSS2-Vero E6, with isotype of 32 ng/mL. In test [6], this substance displayed an EC90, pseudovirus neutralization, Vero E6, with isotype of 6.1 ng/mL; an Emax, pseudovirus neutralization (% neutralization) of 99.9; an Emax, pseudovirus neutralization, TMPRSS2-Vero E6, with isotype (% neutralization) of 99.4; an Emax, pseudovirus neutralization, Vero E6, with isotype (% neutralization) of 99.4. In test [7], this substance returned an EC50, pseudovirus neutralization of 0.13 ng/mL; an EC80, pseudovirus neutralization of 1.1 ng/mL; an EC90, pseudovirus neutralization of 3.7 ng/mL; an Emax, pseudovirus neutralization (% neutralization) of 99.9. Also, in test [8], the EC50, pseudovirus neutralization amounted to 0.12 ng/mL; the EC80, pseudovirus neutralization is 1.4 ng/mL; the EC90, pseudovirus neutralization was 6 ng/mL; the Emax, pseudovirus neutralization (% neutralization) amounted to 100.
In turn, sotrovimab VH/VL-huIgG1 (antibody) returned an EC50, pseudovirus neutralization, Vero E6 in test [6] of 27.9 ng/mL.
